Measured values from publication PMC3433432.

What was measured:
[1] = target: L17C APP-eGFP (human APP751 with leucine 17 of the Aβ sequence mutated to cysteine, fused to eGFP) (human); assay: FRET or BRET; homoFRET by tr-FAIM under TIRF excitation (s polarized light), at the plasma membrane; objective 60x NA 1.49; living HEK293 cells, 37°C, 5% CO2
[2] = target: L17C APP-eGFP (human APP751 with leucine 17 of the Aβ sequence mutated to cysteine, fused to eGFP) (human); assay: FRET or BRET; homoFRET by time-resolved fluorescence anisotropy imaging (tr-FAIM), epifluorescence excitation, objective 60x NA 1.49, xNA = 1.2; living HEK293 cells, 37°C, 5% CO2
[3] = target: enhanced Green Fluorescent Protein (eGFP), cytosolic; assay: as above

**Q.** How did the depolarization time associated with energy transfer (homoFRET) [1] turn out when “L17C APP-eGFP (human APP751 with leucine 17 of the Aβ sequence mutated to cysteine, fused to eGFP) (natural protein)” was run?
**A.** 5.4 ns

**Q.** And the depolarization time associated with energy transfer (homoFRET) [2]?
**A.** 2.4 ns

**Q.** For “enhanced Green Fluorescent Protein (eGFP), cytosolic”, which proportion of molecules in interaction (homoFRET) [3] is on record?
**A.** 6.6%
